Test results taken from a protein production outcome set (Wang et al. 2014).

Assay: label from the status in PepcDB records

Sequence | protein production
MRRAAGKPRARRNTACHAAGILKKYPSVSALGCTFHDARQTSRCDENDKTNETMSSALLLVPDFSLILIGWLLVRYTPFDRGFWAGVERLVYFVLFPALLLQSTNSAKFDFSSTSAMLGLALLTMVFGMATGYLVKWVLRPAPADFASGLQTAFRFNSYIGLALAARLGNGEGLALMALVVGVTVPLCNVVAVWALAKHGEARVLRELVRNPLILATATGLVTNLLGLHPPEVVAMTLNRLGSASTALGLMTVGAGLQMSGATGTAGPMAWWSGVKLLAMPCFAWLVGKYLPLTPLQYQIVVVYASLPTASSSYILAVRMGGNGPMVAATISAMTVVAIVTTPVWLSLVS | failed
MSNSIFHKIIKSVKGLKLKTDPNLPGAKQKTPLNIKRFYLLIILVIYTATSACIYFDWSAIRKLLLHVGKYKHLNVDEYSDMTLSPQYKRINGLYPLTLAVHFTTSVFCGFLYDHIGPKFTAIIGQLFNIICWILLSIDIKGVDTTLWGFIFLGLGADTAFIPVLTVSNLYPDASTFILTVIGAAASLSYAVPATLNLVLKYFPNLSFSYVCYGYIILILIPCLLTAAFLLPLKPFKALDYYLEKNNETTKHTNAEGRSRSSNNIYTNEEDEFHFKNNASGMVDKDSTENNMNTDEHNYYNNGNISSNDLENNIQTNNRNNNKNNNYNNNNNNNNIIKKNTKISDQSTVKKDKSIDSNKNILHDEEDFHKKSIFLFFKILISYPSVCVITYFILFNISTVFYGMVTDTYFSYDRSIINVINILMPLSSIPCVVFGRFINKYGASVIILTINTLSVLMHLCALIKFRFAGLCSAFLYMCVTSVYTSQIYCFIQNSFPSIVFGKLLGFASLCGGIFSLLCEKLYDLIIIKDSSSIDPTNISLLIVIAFIIMFLPLSILYVRKYERSIENFGEKDKLPMN | failed
MKPSTEWWRYLAPLAVIAIIALLPVPAGLENHTWLYFAVFTGVIVGLILEPVPGAVVAMVGISIIAILSPWLLFSPEQLAQPGFKFTAKSLSWAVSGFSNSVIWLIFAAFMFGTGYEKTGLGRRIALILVKKMGHRTLFLGYAVMFSELILAPVTPSNSARGAGIIYPIIRNLPPLYQSQPNDSSSRSIGSYIMWMGIVADCVTSAIFLTAMAPNLLLIGLMKSASHATLSWGDWFLGMLPLSILLVLLVPWLAYVLYPPVLKSGDQVPRWAETELQAMGPLCSREKRMLGLMVGALVLWIFGGDYIDAAMVGYSVVALMLLLRIISWDDIVSNKAAWNVFFWLASLITLATGLNNTGFISWFGKLLAGSLSGYSPTMVMVALIVVFYLLRYFFASATAYTSALAPMMIAAALAMPEIPLPVFCLMVGAAIGLGSILTPYATGPSPIYYGSGYLPTADYWRLGAIFGLIFLVLLVITGLLWMPVVLL | failed
MKIATIKTGLASLAMLPGLVMAAPAVADKADNAFMMICTALVLFMTIPGIALFYGGLIRGKNVLSMLTQVTVTFALVCILWVVYGYSLAFGEGNNFFGNINWLMLKNIELTAVMGSIYQYIHVAFQGSFACITVGLIVGALAERIRFSAVLIFVVVWLTLSYIPIAHMVWGGGLLASHGALDFAGGTVVHINAAIAGLVGAYLIGKRVGFGKEAFKPHNLPMVFTGTAILYIGWFGFNAGSAGTANEIAALAFVNTVVATAAAILGWIFGEWALRGKPSLLGACSGAIAGLVGVTPACGYIGVGGALIIGVVAGLAGLWGVTMLKRLLRVDDPCDVFGVHGVCGIVGCIMTGIFAASSLGGVGFAEGVTMGHQLLVQLESIAITIVWSGVVAFIGYKLADLTVGLRVPEEQEREGLDVNSHGENAYNA | failed
MAYLAPISSSLSIFKNPQLSRFQFSSSSPNPLFLRPRIQILSMTMNKSPSLVVVAATTAAEKQKKRYPGESKGFVEEMRFVAMRLHTKDQAKEGEKETKSIEERPVAKWEPTVEGYLRFLVDSKLVYDTLELIIQDSNFPTYAEFKNTGLERAEKLSTDLEWFKEQGYEIPEPTAPGKTYSQYLKELAEKDPQAFICHFYNIYFAHSAGGRMIGRKVAERILDNKELEFYKWDGELSQLLQNVREKLNKVAEEWTREEKNHCLEETEKSFKYSGEILRLILS | failed
MSRAALGIRSSWVGFVAAATTAMASTIAPVAYAQVAHHVPNDGCSAVEVAVVGGTTQANIHDDPHDVYSFGKGTNFAVNMTRRFHNVTAWQLPYYSSAGITASNNDAEQKEFPPYAVSKNRGVDVLDAHLSDQAVKCPDTQFVIAGFSQGADIAGDMAERISRGKTNPALTPERVLGVYLLADPGRSDLPMNPTQGQTTTGKSGPLTDNGAVLIETNLGLPGAGSVGIAGPRAAGAFSNLPGKVRSICSSGDPACAVHPKGLLASVGKWANDQNDFEHVPVESVRTMMLNGSFFISLAPHMNKIRGDLYASDPVALKQHFDDASMHPRLTQPERNTLHLVGAEIAGLMGHLKQGRDQVAVGSSDTGLSSGGPRDRLIALEKIVQQQTGLVELQLAVGLMIVHLSYTGDSREVSTVGAQRADDWIDSDMTQLISGYLNTLSVRAPYVTLGERHTFIQKMGWPIWWIVSSIWGQRNHAARGVWEFFGL | failed
MKVNVSCSSVQTTIDILEENQGEDESILTLGQLRDRIATDNDVDVETMKLLHRGKFLQGADDVSLSTLNFKENDKIIVMGGKNALVDDAGFKMLMQYEKHNLSNLQKAYDLNLRDVADLERGFLEKPKQVEMGKKLEKKVKYFNEEAERHLETLDGMNIITETTPENQAKRNREKRKTLVNGIQTLLNQNDALLRRLQEYQSVLNGDIPE | not failed
MDKSIIQLVDELPSDNITVKVLNALDYVAPGQWQNLVGFDNTIRAVTGETDARVIQKIRDRATSLYNDPQQGYQSAVKLYQTIDKADTAMATAALANKVGEKIGFLSFLSNITPKADVTQSIDLVSKIAIEIIVFCKLNGIPQPNPQEFANSLANNYQDASLIRMVALVCLDGILPLGPDFLSKIQGIISGAESNSITQNPVFLAVNSSLPGSNPTDKLGFINQGFNAVQGWMNNLVTKTGITPQSISSHLGNFIQIADDNLDFVAAFLDQTTNYFEHTGIQSVARRLILKAHTLVKEEIKQETTQPIQDSSSAVKSDTSQYAVSKKIEVWDEEEEDWYQATIEKVQDDQFFINYIGYGSSHNEWVGKDDIRATDYASSDANGYAVGKKVKCWSDEEETWYTATIEKIQGNQYFIHYTGYDSSYDEWVNSDDIS | failed
MAVLPPDPVFSLRSPDMGAVNSLCFQESDRLLAGTIKGSVFLWDLQTNRSALHFEVGSDPITSLHHTPDRLVTQEKGGTITMFSIGGSSYVKERSIPGNHLGFCRSALHTNTSKTNEQLLFYPCEESSIGVLHVTDAAAPTQILVPDDPQLPKLGSVTCFKPFECASQLFLLAGYESGHFLTWDISSSVILDVMELAQDATSVDYDPVTNRGIVGGPTDKLISFSYQRSSMQMQLGSELCIKNPGVNGVRIRPDQKVFASAGWDGRIRIFSWKSLRPLAVLTQHKNGGVMDLAFSSQQVAMWHAPIMAAAGMDGQISLWDLYN | failed
MFIAIHSQSFFSPEMDMVASRDRRPPPATIRREPFQLIRIKAAGLAAEGVNAMTSVFTRSAVACAIALAAAAISQAGAQGLKKYESGTKEFWTNPPPDWFLGDETEAQKGLAPPAGPPTGSSDAELAAMIKKIKLPPGFKIEVYASGVLSARQMAWGDNGTLFVGSFGVGSVYAITDKDGKKQVKTILKGLKMPTGLAFRDGALYVVDIDKLIRYDNAEANLDNLGSGKVVYDDMPSYVAHGWKYLAADKDGWFYVPFGPPFNIGIPPTSVSQIRRVDPKTGNAEIVALGVRNSVGGDVDPRSGKYWFTENARDWISDDMPSDKLNMISKLGEHFGYPYCHQGDMPDPKFAMGHKCSEFTPPVLNLGAHVAPLGMKFYTGDQFPAEYKNNIFIAEHGSWNRHKYQGGLIKRVIADPDGKNAKQEDFATGWIEGDQGYLGRPADIVLAKDGSMLVADDWAGAIYRISYSK | failed
MAPRYDTLFYDGSCPLCAREIRTLRRLQTGNLIFADIHEQNPSNQQLPSREQLLRRLHLMSWNGEWVTGLHANVRAWSHTRFGWLFKPLLWPVIHPIASRIYETWADKRYGRKYACAMGHENSCPPGT | failed
MRKVLFTVALLLTACFVSAQVSVVKEAKSLKSKPEEAAKAIEPALTNPETANDPETWKLAGDFQKAIYDEENMKLYLPGGQADTTKLYNSLAKMYDFYLKCDEIEQAKVQSGELKKPKFRKKNADALKTLRLNLVNGGGDAYNKGDYADALKYFGLFVDVVNEPMFADDDELKADTLNALYACYATLAANMLKDNQAVIKYGNIGKNHKEEGYRALMCLAETYGQKEGGDSAKWLEVIKEGTESFPKQEYFVGNIMDYYIQKGMVDEGLAQINKLLATSETPYYLYVKGILLYEKKQYDDAVAIFNKIISNNGDLVAEAYSKIGDCYFFPAQIIVEENAKLAIDDPKYNENENKIKELYEKAKPYYEKAKELKPDNKALWGNYLLNIYWKLNRAEYDSLEKELGY | failed
